Measured values reported in patent US20100081612A1 (GENERAL HOSPITAL, published 2010).
Read-outs that look alike come from different tables or passages of the source. Where no end group is shown, it is not given here. [ ]: non-standard residue; d: D form. Apa = (S)-2-amino-4[(2-amino)pyrimidinyl]methylalanine; Cha = N[C@@H](CC1CCCCC1)C(=O)O; Orn = NCCC[C@H](N)C(=O)O

T1: wild-type human PTHR (human, UniProt Q03431 27-593)
T1 sequence (looked up): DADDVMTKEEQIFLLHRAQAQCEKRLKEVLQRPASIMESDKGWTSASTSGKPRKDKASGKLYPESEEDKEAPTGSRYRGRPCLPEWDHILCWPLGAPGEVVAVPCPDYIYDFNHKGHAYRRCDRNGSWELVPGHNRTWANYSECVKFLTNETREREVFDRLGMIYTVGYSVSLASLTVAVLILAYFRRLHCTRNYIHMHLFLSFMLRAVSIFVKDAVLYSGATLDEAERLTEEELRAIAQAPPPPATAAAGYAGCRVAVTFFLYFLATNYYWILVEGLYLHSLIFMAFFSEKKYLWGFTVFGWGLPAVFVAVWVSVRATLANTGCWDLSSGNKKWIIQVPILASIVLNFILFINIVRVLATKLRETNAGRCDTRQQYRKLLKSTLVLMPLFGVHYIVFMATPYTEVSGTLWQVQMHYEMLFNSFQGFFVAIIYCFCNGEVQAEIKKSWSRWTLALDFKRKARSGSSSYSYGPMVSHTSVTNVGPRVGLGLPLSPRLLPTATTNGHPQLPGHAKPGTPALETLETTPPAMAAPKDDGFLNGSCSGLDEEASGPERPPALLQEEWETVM

T2: rat PTHR endogenously expressed in ROS 17/2.8 cells (rat, UniProt P25961 27-591)
T2 construct: whole, on cells; also called endogenous PTHR; PTHR in ROS 17/2.8 cells
T2 sequence (looked up): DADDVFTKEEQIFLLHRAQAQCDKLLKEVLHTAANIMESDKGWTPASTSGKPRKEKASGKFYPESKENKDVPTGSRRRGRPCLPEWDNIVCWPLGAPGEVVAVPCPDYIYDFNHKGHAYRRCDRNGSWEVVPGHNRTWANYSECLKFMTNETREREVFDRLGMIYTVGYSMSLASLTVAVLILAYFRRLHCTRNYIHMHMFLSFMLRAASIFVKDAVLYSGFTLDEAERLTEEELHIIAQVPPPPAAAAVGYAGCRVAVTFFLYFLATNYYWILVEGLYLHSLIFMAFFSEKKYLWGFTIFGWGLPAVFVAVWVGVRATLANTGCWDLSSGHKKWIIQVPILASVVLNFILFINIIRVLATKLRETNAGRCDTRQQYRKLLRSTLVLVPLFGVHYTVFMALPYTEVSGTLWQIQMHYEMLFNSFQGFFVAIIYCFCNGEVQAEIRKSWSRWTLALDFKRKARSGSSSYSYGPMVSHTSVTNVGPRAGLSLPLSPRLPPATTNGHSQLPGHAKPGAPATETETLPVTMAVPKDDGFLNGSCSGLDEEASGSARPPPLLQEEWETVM


Key:
PTHR-delNt (human) = PTHR-delNt (human) (UniProt Q03431); experiment: competition binding, COS-7 membranes, 125I-[Aib1,3,M]PTH(1-15) tracer
wild-type human PTHR [1] = molecular target: T1, wild-type human PTHR; experiment: competition binding, HKRK-B7 cells, 125I-PTH(1-34) tracer
[2] = molecular target: T2, rat PTHR endogenously expressed in ROS …; experiment: competition binding, ROS 17/2.8 cells, 125I-PTH(1-34) tracer
Procedure: Receptor binding—Binding to the wild-type human PTHR in intact HKRK-B7 cells and ROS 17/2.8 cells was assessed using ¹²⁵I-PTH(1-34) as a tracer radioligand, as described (Shimizu, M., (2001) Endocrinology 142:3068-3074). In brief, the cells in 24-well plates (about 500,000 cells per well) were incubated in binding buffer containing radioligand (about 100,000 cpm per well) with or without unlabeled peptide ligand (3×10⁻⁹ to 1×10⁻⁵ M) for four hours at 15° C. The binding mixture was then removed by aspiration, the cells were rinsed three times with binding buffer, lysed in 1 M NaOH, and the entire lysate was counted for gamma-irradiation in a gamma counter. Binding to PTHR-delNt in COS-7 cell membranes was assessed in 96-well, vacuum filtration plates (Multiscreen-Durapore HV, […], Millipore Corp., Millford, Mass.) using ¹²⁵I-[Aib^{1,3},M]PTH(1-15)NH₂ as a tracer radioligand, as described (Dean, T., (2006) Mol Endocrinol 20:931-942). In brief, cell membranes (20 μg/well) were incubated in membrane binding buffer containing radioligand (30,000 cpm/well) with or without unlabeled peptide ligand (3×10⁻⁹ to 1×10⁻⁵ M) for 90 minutes at 21° C. The plates were then subject to rapid vacuum filtration, the filters were washed once with buffer, detached from the plate and counted for gamma-irradiation in a gamma counter. Non-specific binding was defined as the binding observed in the presence of 1×10⁻⁶ M PTH(1-31)NH₂ for HKRK-B7 and ROS 17/2.8 cells, and 1×10⁻⁶ M [Aib^{1,3},M]PTH(1-15)NH₂ for PTHR-delNt. Specifically bound radioactivity was calculated as a percentage of the radioactivity specifically bound in the absence of competing ligand.
Effects on cAMP and IP signaling—Selected analogs of [Ala¹,Arg¹⁹]hPTH(1-31)NH₂ with substitutions that markedly impaired binding to HKRK-B7 cells were assessed for their capacity to bind to the PTHR in ROS 17/2.8 cells and to stimulate cAMP-signaling responses in these cells. These bone-derived cells endogenously express the rat PTHR at a more physiological level than is found in HKRK-B7 cells (approximately 80,000 PTHRs per cell vs. 950,000 PTHRs per cell) and, have generally been found (data not shown) to yield closer correlations between PTH analog binding affinity and cAMP-signaling potency than do HKRK-B7 cells, presumably due to their lower PTHR expression level.

wild-type human PTHR [3] = molecular target: T1, wild-type human PTHR; experiment: competition binding, HKRK-B7 cells, 125I-PTH(1-34) tracer
[4] = molecular target: T2, rat PTHR endogenously expressed in ROS …; experiment: cell-based or functional assay
wild-type human PTHR [5] = molecular target: T1, wild-type human PTHR; experiment: competition binding, HKRK-B7 cells, 125I-PTH(1-34) tracer; remark: listed apart in the source
Summary of the method: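 Intact HKRK-B7 cells stably expressing hPTHR incubated 4 h at 15° C with ¹²⁵I-PTH(1-34) tracer and unlabeled peptide (3×10⁻⁹ to 1×10⁻⁵ M). Nonspecific binding defined with 1×10⁻⁶ M PTH(1-31)NH₂. Bound activity counted after lysis and expressed as % specific binding without competitor; values in nM, mean ± s.e.m.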

IC50 (PTHR-delNt (human))	fold difference of IC50 from PTH(1-31)NH2 (PTHR-delNt (human))	IC50 (wild-type human PTHR [1])	IC50 [2]	fold change in binding affinity vs [Ala^1,Arg^19]PTH(1-31)NH2 (PTHR-delNt (human))	fold reduction in binding affinity vs [Ala^1,Arg^19]PTH(1-31)NH2 (wild-type human PTHR [3])	fold reduction in binding vs [Ala^1,Arg^19]PTH(1-31)NH2 (wild-type human PTHR [3])	cAMP EC50, ROS 17/2.8 cells [4]	IC50 (wild-type human PTHR [5])	fold reduction in binding affinity vs [Ala^1,Arg^19]PTH(1-31)NH2 (PTHR-delNt (human))	Binder
5530 nM	< 4 fold	> 10000 nM								SVSEIQLMHNLGKHLNSME[Orn]VEWLRKKLQDV-NH2 (N-terminus assumed; SMILES CC[C@H](C)[C@H](NC(=O)[C@H](CCC(=O)O)NC(=O)[C@H](CO)NC(=O)[C@@H](NC(=O)[C@@H](N)CO)C(C)C)C(=O)N[C@@H](CCC(N)=O)C(=O)N[C@@H](CC(C)C)C(=O)N[C@@H](CCSC)C(=O)N[C@@H](Cc1c[nH]cn1)C(=O)N[C@@H](CC(N)=O)C(=O)N[C@@H](CC(C)C)C(=O)NCC(=O)N[C@@H](CCCCN)C(=O)N[C@@H](Cc1c[nH]cn1)C(=O)N[C@@H](CC(C)C)C(=O)N[C@@H](CC(N)=O)C(=O)N[C@@H](CO)C(=O)N[C@@H](CCSC)C(=O)N[C@@H](CCC(=O)O)C(=O)N[C@@H](CCCN)C(=O)N[C@H](C(=O)N[C@@H](CCC(=O)O)C(=O)N[C@@H](Cc1c[nH]c2ccccc12)C(=O)N[C@@H](CC(C)C)C(=O)N[C@@H](CCCNC(=N)N)C(=O)N[C@@H](CCCCN)C(=O)N[C@@H](CCCCN)C(=O)N[C@@H](CC(C)C)C(=O)N[C@@H](CCC(N)=O)C(=O)N[C@@H](CC(=O)O)C(=O)N[C@H](C(N)=O)C(C)C)C(C)C) [PTH(1-31)NH2 Arg^20→Orn]
283 nM			7.3 nM	< 3 fold	11 fold	~12 fold	0.83 nM	436 nM		AVSEIQLMHNLGKHLNSMRRVEW[Cha]RKKLQDV-NH2 (N-terminus assumed; SMILES CC[C@H](C)[C@H](NC(=O)[C@H](CCC(=O)O)NC(=O)[C@H](CO)NC(=O)[C@@H](NC(=O)[C@H](C)N)C(C)C)C(=O)N[C@@H](CCC(N)=O)C(=O)N[C@@H](CC(C)C)C(=O)N[C@@H](CCSC)C(=O)N[C@@H](Cc1c[nH]cn1)C(=O)N[C@@H](CC(N)=O)C(=O)N[C@@H](CC(C)C)C(=O)NCC(=O)N[C@@H](CCCCN)C(=O)N[C@@H](Cc1c[nH]cn1)C(=O)N[C@@H](CC(C)C)C(=O)N[C@@H](CC(N)=O)C(=O)N[C@@H](CO)C(=O)N[C@@H](CCSC)C(=O)N[C@@H](CCCNC(=N)N)C(=O)N[C@@H](CCCNC(=N)N)C(=O)N[C@H](C(=O)N[C@@H](CCC(=O)O)C(=O)N[C@@H](Cc1c[nH]c2ccccc12)C(=O)N[C@@H](CC1CCCCC1)C(=O)N[C@@H](CCCNC(=N)N)C(=O)N[C@@H](CCCCN)C(=O)N[C@@H](CCCCN)C(=O)N[C@@H](CC(C)C)C(=O)N[C@@H](CCC(N)=O)C(=O)N[C@@H](CC(=O)O)C(=O)N[C@H](C(N)=O)C(C)C)C(C)C) [[Ala^1,Arg^19]hPTH(1-31)NH2 Leu^24→Cha]
5740 nM	< 4 fold	> 10000 nM								SVSEIQLMHNLGKHLNSME[Apa]VEWLRKKLQDV-NH2 [PTH(1-31)NH2 Arg^20→Apa]
867 nM			19 nM	< 3 fold	14 fold	~12 fold	0.82 nM	546 nM		AVSEIQLMHNLGKHLNSMRRVE[Cha]LRKKLQDV-NH2 (N-terminus assumed; SMILES CC[C@H](C)[C@H](NC(=O)[C@H](CCC(=O)O)NC(=O)[C@H](CO)NC(=O)[C@@H](NC(=O)[C@H](C)N)C(C)C)C(=O)N[C@@H](CCC(N)=O)C(=O)N[C@@H](CC(C)C)C(=O)N[C@@H](CCSC)C(=O)N[C@@H](Cc1c[nH]cn1)C(=O)N[C@@H](CC(N)=O)C(=O)N[C@@H](CC(C)C)C(=O)NCC(=O)N[C@@H](CCCCN)C(=O)N[C@@H](Cc1c[nH]cn1)C(=O)N[C@@H](CC(C)C)C(=O)N[C@@H](CC(N)=O)C(=O)N[C@@H](CO)C(=O)N[C@@H](CCSC)C(=O)N[C@@H](CCCNC(=N)N)C(=O)N[C@@H](CCCNC(=N)N)C(=O)N[C@H](C(=O)N[C@@H](CCC(=O)O)C(=O)N[C@@H](CC1CCCCC1)C(=O)N[C@@H](CC(C)C)C(=O)N[C@@H](CCCNC(=N)N)C(=O)N[C@@H](CCCCN)C(=O)N[C@@H](CCCCN)C(=O)N[C@@H](CC(C)C)C(=O)N[C@@H](CCC(N)=O)C(=O)N[C@@H](CC(=O)O)C(=O)N[C@H](C(N)=O)C(C)C)C(C)C) [[Ala^1,Arg^19]hPTH(1-31)NH2 Trp^23→Cha]
1040 nM			29000 nM		≥ 150 fold		250 nM	> 10000 nM	< 3 fold	AVSEIQLMHNLGKHLNSMRRVEWERKKLQDV-NH2 [[Ala^1,Arg^19]hPTH(1-31)NH2 Leu^24→Glu]
632 nM			290 nM	< 3 fold	120 fold		7.5 nM	4740 nM		AVSEIQLMHNLGKHLNSMR[Cha]VEWLRKKLQDV-NH2 (N-terminus assumed; SMILES CC[C@H](C)[C@H](NC(=O)[C@H](CCC(=O)O)NC(=O)[C@H](CO)NC(=O)[C@@H](NC(=O)[C@H](C)N)C(C)C)C(=O)N[C@@H](CCC(N)=O)C(=O)N[C@@H](CC(C)C)C(=O)N[C@@H](CCSC)C(=O)N[C@@H](Cc1c[nH]cn1)C(=O)N[C@@H](CC(N)=O)C(=O)N[C@@H](CC(C)C)C(=O)NCC(=O)N[C@@H](CCCCN)C(=O)N[C@@H](Cc1c[nH]cn1)C(=O)N[C@@H](CC(C)C)C(=O)N[C@@H](CC(N)=O)C(=O)N[C@@H](CO)C(=O)N[C@@H](CCSC)C(=O)N[C@@H](CCCNC(=N)N)C(=O)N[C@@H](CC1CCCCC1)C(=O)N[C@H](C(=O)N[C@@H](CCC(=O)O)C(=O)N[C@@H](Cc1c[nH]c2ccccc12)C(=O)N[C@@H](CC(C)C)C(=O)N[C@@H](CCCNC(=N)N)C(=O)N[C@@H](CCCCN)C(=O)N[C@@H](CCCCN)C(=O)N[C@@H](CC(C)C)C(=O)N[C@@H](CCC(N)=O)C(=O)N[C@@H](CC(=O)O)C(=O)N[C@H](C(N)=O)C(C)C)C(C)C, also called Cha^20 analog) [[Ala^1,Arg^19]hPTH(1-31)NH2 Arg^20→Cha]
